Here are results for 1 substance from PMC12846780.

For the experiment, the target named is IL7R (human (endogenous in PBMC T cells, SiHa, Daudi)) (UniProt P16871).
Chain of UniProt P16871 (P16871 21-459): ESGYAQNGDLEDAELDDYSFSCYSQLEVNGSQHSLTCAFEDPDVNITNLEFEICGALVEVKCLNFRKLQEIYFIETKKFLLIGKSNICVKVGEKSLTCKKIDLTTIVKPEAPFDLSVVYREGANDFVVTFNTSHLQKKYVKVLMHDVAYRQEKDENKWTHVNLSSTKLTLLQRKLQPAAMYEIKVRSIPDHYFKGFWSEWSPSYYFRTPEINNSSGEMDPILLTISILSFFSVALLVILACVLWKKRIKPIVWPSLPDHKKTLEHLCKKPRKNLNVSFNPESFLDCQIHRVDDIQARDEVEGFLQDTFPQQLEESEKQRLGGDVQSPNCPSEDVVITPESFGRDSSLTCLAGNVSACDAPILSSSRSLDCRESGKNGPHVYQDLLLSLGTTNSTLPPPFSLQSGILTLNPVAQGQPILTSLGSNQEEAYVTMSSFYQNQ

For “IL7-Bevacizumab kineTAC (from UniProt P13232 26-177) (bispecific antibody)”, the percent of T cells in PBMCs positive for VEGF-647 after 24 h with 10 nM kineTAC and 25 nM VEGF-647 (four donors) is 85.4%.
